Experimental data reported in publication doi:10.1101/2025.07.11.664400 (bioRxiv, 2025).

T1: RecB (E. coli, UniProt P08394 1-1180)
T1 sequence: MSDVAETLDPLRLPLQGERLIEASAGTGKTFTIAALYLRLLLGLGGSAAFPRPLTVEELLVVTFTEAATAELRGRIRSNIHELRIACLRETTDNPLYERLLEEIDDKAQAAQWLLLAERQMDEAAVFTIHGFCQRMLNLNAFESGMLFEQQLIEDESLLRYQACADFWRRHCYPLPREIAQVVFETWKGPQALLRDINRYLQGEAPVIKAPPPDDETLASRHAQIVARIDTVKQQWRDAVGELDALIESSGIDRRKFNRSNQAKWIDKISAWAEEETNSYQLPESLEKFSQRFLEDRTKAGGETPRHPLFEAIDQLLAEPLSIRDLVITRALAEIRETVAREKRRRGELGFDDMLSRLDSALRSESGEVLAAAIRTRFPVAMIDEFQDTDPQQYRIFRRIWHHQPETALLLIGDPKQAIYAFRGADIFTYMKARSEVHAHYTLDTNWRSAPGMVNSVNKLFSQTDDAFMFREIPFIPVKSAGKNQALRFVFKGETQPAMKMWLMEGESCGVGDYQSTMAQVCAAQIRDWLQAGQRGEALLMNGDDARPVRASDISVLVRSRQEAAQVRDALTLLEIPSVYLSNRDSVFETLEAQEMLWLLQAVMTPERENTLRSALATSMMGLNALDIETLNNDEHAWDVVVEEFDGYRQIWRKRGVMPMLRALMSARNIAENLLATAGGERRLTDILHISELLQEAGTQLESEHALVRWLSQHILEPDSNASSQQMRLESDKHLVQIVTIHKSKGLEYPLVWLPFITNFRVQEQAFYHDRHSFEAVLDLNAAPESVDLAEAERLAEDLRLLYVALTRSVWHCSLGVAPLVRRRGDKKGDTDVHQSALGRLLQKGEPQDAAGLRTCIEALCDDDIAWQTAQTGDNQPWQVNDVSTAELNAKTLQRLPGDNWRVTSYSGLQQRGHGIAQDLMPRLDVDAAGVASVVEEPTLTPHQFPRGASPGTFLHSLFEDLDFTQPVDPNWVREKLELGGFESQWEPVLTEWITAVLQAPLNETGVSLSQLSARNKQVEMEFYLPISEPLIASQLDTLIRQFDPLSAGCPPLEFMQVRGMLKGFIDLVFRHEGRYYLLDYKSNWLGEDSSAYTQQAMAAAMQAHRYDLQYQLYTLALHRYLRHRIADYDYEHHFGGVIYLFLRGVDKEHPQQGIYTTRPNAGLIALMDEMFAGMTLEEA

B1: RecC (natural protein)
chain: MLRVYHSNRLDVLEALMEFIVERERLDDPFEPEMILVQSTGMAQWLQMTLSQKFGIAANIDFPLPASFIWDMFVRVLPEIPKESAFNKQSMSWKLMTLLPQLLEREDFTLLRHYLTDDSDKRKLFQLSSKAADLFDQYLVYRPDWLAQWETGHLVEGLGEAQAWQAPLWKALVEYTHQLGQPRWHRANLYQRFIETLESATTCPPGLPSRVFICGISALPPVYLQALQALGKHIEIHLLFTNPCRYYWGDIKDPAYLAKLLTRQRRHSFEDRELPLFRDSENAGQLFNSDGEQDVGNPLLASWGKLGRDYIYLLSDLESSQELDAFVDVTPDNLLHNIQSDILELENRAVAGVNIEEFSRSDNKRPLDPLDSSITFHVCHSPQREVEVLHDRLLAMLEEDPTLTPRDIIVMVADIDSYSPFIQAVFGSAPADRYLPYAISDRRARQSHPVLEAFISLLSLPDSRFVSEDVLALLDVPVLAARFDITEEGLRYLRQWVNESGIRWGIDDDNVRELELPATGQHTWRFGLTRMLLGYAMESAQGEWQSVLPYDESSGLIAELVGHLASLLMQLNIWRRGLAQERPLEEWLPVCRDMLNAFFLPDAETEAAMTLIEQQWQAIIAEGLGAQYGDAVPLSLLRDELAQRLDQERISQRFLAGPVNICTLMPMRSIPFKVVCLLGMNDGVYPRQLAPLGFDLMSQKPKRGDRSRRDDDRYLFLEALISAQQKLYISYIGRSIQDNSERFPSVLVQELIDYIGQSHYLPGDEALNCDESEARVKAHLTCLHTRMPFDPQNYQPGERQSYAREWLPAASQAGKAHSEFVQPLPFTLPETVPLETLQRFWAHPVRAFFQMRLQVNFRTEDSEIPDTEPFILEGLSRYQINQQLLNALVEQDDAERLFRRFRAAGDLPYGAFGEIFWETQCQEMQQLADRVIACRQPGQSMEIDLACNGVQITGWLPQVQPDGLLRWRPSLLSVAQGMQLWLEHLVYCASGGNGESRLFLRKDGEWRFPPLAAEQALHYLSQLIEGYREGMSAPLLVLPESGGAWLKTCYDAQNDAMLDDDSTLQKARTKFLQAYEGNMMVRGEGDDIWYQRLWRQLTPETMEAIVEQSQRFLLPLFRFNQS

Key:
RecBΔNucCD = RecBΔNucCD (Escherichia coli, UniProt P08394;P07648;P04993 1-929;1-1122;1-608); assay: fluorescence competition
RecBCD = RecBCD (Escherichia coli, UniProt P08394;P07648;P04993 1-1180;1-1122;1-608); assay: fluorescence competition
RecC = molecular target: B1; assay: AUC
RecB = molecular target: T1, RecB; assay: AUC

binding result (RecC)	binding result (RecB)	Binder	Ka (RecBΔNucCD) [M⁻¹]	Ka (RecBCD) [M⁻¹]
		3'-dT2 (dsDNA) DNA 1: CCATGGCTCCTGAGCTAGCTGCAGTAGCCTAAAGGATGAAACTAGGATCTTATGCTCCAGTT DNA 2: CTGGAGCATAAGATCCTAGTTTCATCCTTTAGGCTACTGCAGCTAGCTCAGGAGCCATGGTT	9.6e+07	2.1e+07
binds		RecD (natural protein) MKLQKQLLEAVEHKQLRPLDVQFALTVAGDEHPAVTLAAALLSHDAGEGHVCLPLSRLENNEASHPLLATCVSEIGELQNWEECLLASQAVSRGDEPTPMILCGDRLYLNRMWCNERTVARFFNEVNHAIEVDEALLAQTLDKLFPVSDEINWQKVAAAVALTRRISVISGGPGTGKTTTVAKLLAALIQMADGERCRIRLAAPTGKAAARLTESLGKALRQLPLTDEQKKRIPEDASTLHRLLGAQPGSQRLRHHAGNPLHLDVLVVDEASMIDLPMMSRLIDALPDHARVIFLGDRDQLASVEAGAVLGDICAYANAGFTAERARQLSRLTGTHVPAGTGTEAASLRDSLCLLQKSYRFGSDSGIGQLAAAINRGDKTAVKTVFQQDFTDIEKRLLQSGEDYIAMLEEALAGYGRYLDLLQARAEPDLIIQAFNEYQLLCALREGPFGVAGLNERIEQFMQQKRKIHRHPHSRWYEGRPVMIARNDSALGLFNGDIGIALDRGQGTRVWFAMPDGNIKSVQPSRLPEHETTWAMTVHKSQGSEFDHAALILPSQRTPVVTRELVYTAVTRARRRLSLYADERILSAAIATRTERRSGLAALFSSRE		
binds		RecB^ΔNuc (RecB with the nuclease domain, residues 930-1180, deleted) (domain or fragment) MSDVAETLDPLRLPLQGERLIEASAGTGKTFTIAALYLRLLLGLGGSAAFPRPLTVEELLVVTFTEAATAELRGRIRSNIHELRIACLRETTDNPLYERLLEEIDDKAQAAQWLLLAERQMDEAAVFTIHGFCQRMLNLNAFESGMLFEQQLIEDESLLRYQACADFWRRHCYPLPREIAQVVFETWKGPQALLRDINRYLQGEAPVIKAPPPDDETLASRHAQIVARIDTVKQQWRDAVGELDALIESSGIDRRKFNRSNQAKWIDKISAWAEEETNSYQLPESLEKFSQRFLEDRTKAGGETPRHPLFEAIDQLLAEPLSIRDLVITRALAEIRETVAREKRRRGELGFDDMLSRLDSALRSESGEVLAAAIRTRFPVAMIDEFQDTDPQQYRIFRRIWHHQPETALLLIGDPKQAIYAFRGADIFTYMKARSEVHAHYTLDTNWRSAPGMVNSVNKLFSQTDDAFMFREIPFIPVKSAGKNQALRFVFKGETQPAMKMWLMEGESCGVGDYQSTMAQVCAAQIRDWLQAGQRGEALLMNGDDARPVRASDISVLVRSRQEAAQVRDALTLLEIPSVYLSNRDSVFETLEAQEMLWLLQAVMTPERENTLRSALATSMMGLNALDIETLNNDEHAWDVVVEEFDGYRQIWRKRGVMPMLRALMSARNIAENLLATAGGERRLTDILHISELLQEAGTQLESEHALVRWLSQHILEPDSNASSQQMRLESDKHLVQIVTIHKSKGLEYPLVWLPFITNFRVQEQAFYHDRHSFEAVLDLNAAPESVDLAEAERLAEDLRLLYVALTRSVWHCSLGVAPLVRRRGDKKGDTDVHQSALGRLLQKGEPQDAAGLRTCIEALCDDDIAWQTAQTGDNQPWQVNDVSTAELNAKTLQRLPGDNWRVTSYSGLQQRGHGIAQDLMPRLDVDAA		
		3'-dT4 (dsDNA) DNA 1: CCATGGCTCCTGAGCTAGCTGCAGTAGCCTAAAGGATGAAACTAGGATCTTATGCTCCAGTTTT DNA 2: CTGGAGCATAAGATCCTAGTTTCATCCTTTAGGCTACTGCAGCTAGCTCAGGAGCCATGGTTTT	3.3e+08	4.7e+07
	binds	B1		
